{
  "source": "paper PMC3310290",
  "target": "fibrin (Homo sapiens) (UniProt P02671)",
  "test": "ELISA",
  "data": [
    {"substance": "fibronectin, P02751", "values": [
      {"measurement": "IC50", "result": 4.9, "unit": "nM"}
    ]}
  ]
}
